Test results from patent EP2014310A2 (Dyax Corporation, dated 2009).
Bridge positions count the residues as written; N and C are the ends. Side chains are listed from the residue outwards. Ends that are not written are not given here. I, II: the chains in the order shown. * marks the point of attachment. Biotin = O=C1N[C@H]2[C@H](CS[C@H]2CCCCC(=O)*)N1; AEEA = NCCOCCOCC(=O)O

What was measured:
[1] = target: T1, human KDR-Fc fusion (R&D Systems #357-KD-050) (human, UniProt P35968 20-764); assay: SPR
T1 construct: bought
T1 sequence (P35968 20-764): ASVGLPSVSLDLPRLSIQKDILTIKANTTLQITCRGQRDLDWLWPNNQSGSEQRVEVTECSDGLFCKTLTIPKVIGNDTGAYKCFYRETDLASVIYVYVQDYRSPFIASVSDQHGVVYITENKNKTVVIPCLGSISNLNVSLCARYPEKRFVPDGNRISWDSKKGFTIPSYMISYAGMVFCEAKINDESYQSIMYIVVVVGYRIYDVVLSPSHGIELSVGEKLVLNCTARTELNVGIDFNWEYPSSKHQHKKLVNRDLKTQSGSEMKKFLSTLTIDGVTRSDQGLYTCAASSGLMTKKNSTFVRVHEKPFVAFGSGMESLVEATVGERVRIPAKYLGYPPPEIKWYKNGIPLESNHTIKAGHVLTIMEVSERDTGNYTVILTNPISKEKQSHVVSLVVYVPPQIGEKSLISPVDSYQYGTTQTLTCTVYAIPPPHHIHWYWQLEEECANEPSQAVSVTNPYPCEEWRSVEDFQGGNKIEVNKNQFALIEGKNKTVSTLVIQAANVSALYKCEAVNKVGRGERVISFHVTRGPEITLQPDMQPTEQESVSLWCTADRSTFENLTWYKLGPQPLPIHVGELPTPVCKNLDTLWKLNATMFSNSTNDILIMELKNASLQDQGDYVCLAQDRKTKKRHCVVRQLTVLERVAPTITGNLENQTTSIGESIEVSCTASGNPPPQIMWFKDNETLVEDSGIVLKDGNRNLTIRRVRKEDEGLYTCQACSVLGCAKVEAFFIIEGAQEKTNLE

[2] = target: T2, KDR/VEGF complex (KDR-Fc mixed or saturated with VEGF) (human, UniProt P35968 20-764; P15692 27-191); assay: fluorescence anisotropy, fluorescein-labeled peptide, KDR-Fc with two fold excess VEGF
T2 construct: anisotropy: two fold molar excess of VEGF mixed with KDR-Fc; Biacore: KDR-Fc chip saturated with VEGF; also called KDR:VEGF165 complex
T2 sequence (P35968 20-764, chain 1 of 2): as the sequence (P35968 20-764) above
T2 sequence (P15692 other isoform, or with tags, fused parts or gaps, chain 2 of 2): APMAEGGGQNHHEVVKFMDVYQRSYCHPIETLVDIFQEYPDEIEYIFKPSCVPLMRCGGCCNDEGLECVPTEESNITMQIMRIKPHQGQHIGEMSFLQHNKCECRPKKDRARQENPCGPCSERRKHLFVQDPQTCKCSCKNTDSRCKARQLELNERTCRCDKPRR

[3] = target: T2, KDR/VEGF complex (KDR-Fc mixed or …); assay: Biacore, KDR-Fc chip saturated with VEGF, unlabeled peptide
[4] = target: T1, human KDR-Fc fusion (R&D Systems …); assay: fluorescence anisotropy, fluorescein-labeled peptide, KDR-Fc alone
[5] = target: VEGF165 (Peprotech #100-20) (UniProt P15692-4 27-191); assay: fluorescence anisotropy, fluorescein-labeled peptide
VEGF165 (Peprotech #100-20), sequence (P15692 other isoform, or with tags, fused parts or gaps limits assumed): as the sequence (P15692 other isoform, or with tags, fused parts or gaps, chain 2 of 2) above

[6] = target: KDR on transiently KDR-transfected 293H cells (human) (UniProt P35968); assay: neutravidin-HRP complexes, KDR minus mock 293H cells
KDR on transiently KDR-transfected 293H cells (human), sequence (P35968 20-1356): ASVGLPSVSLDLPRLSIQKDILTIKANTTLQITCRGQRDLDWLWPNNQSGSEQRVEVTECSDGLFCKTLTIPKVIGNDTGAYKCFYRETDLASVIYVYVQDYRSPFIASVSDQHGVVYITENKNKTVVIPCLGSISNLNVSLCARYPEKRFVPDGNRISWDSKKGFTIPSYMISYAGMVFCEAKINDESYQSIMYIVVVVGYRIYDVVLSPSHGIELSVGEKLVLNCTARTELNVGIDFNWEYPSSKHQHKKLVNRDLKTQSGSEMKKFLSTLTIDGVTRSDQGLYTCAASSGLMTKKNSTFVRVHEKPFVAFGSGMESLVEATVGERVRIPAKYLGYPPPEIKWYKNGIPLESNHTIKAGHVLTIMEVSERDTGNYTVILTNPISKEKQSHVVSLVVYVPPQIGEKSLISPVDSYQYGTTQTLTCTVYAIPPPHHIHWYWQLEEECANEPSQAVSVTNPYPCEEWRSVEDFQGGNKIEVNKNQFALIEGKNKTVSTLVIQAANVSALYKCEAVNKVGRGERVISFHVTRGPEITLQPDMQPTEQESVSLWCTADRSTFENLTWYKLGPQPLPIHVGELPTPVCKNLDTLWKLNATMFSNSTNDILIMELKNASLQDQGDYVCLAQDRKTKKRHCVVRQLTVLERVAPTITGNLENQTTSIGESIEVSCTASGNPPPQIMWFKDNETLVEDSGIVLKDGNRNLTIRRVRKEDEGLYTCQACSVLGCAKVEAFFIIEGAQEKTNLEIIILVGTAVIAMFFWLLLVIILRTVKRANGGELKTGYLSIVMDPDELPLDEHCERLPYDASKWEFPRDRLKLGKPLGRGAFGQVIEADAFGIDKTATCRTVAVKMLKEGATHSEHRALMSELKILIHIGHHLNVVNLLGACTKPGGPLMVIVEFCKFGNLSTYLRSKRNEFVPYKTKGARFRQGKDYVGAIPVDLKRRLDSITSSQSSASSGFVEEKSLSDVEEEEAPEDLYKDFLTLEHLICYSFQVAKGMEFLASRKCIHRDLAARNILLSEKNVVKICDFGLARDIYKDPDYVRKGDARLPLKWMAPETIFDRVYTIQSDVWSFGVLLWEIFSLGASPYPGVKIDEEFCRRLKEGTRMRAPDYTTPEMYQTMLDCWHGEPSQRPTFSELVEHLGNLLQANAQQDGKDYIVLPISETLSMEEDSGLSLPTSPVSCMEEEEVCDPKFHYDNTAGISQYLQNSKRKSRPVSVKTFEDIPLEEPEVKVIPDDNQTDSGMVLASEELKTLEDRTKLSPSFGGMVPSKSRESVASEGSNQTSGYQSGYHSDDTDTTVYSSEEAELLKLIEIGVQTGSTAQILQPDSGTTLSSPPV

[7] = target: T3, murine KDR-Fc fusion (R&D Systems #443-KD-050) (murine, UniProt P35918 20-762); assay: BIAcore, KD1 = kd1/ka1, murine KDR-Fc 2700RU
T3 construct: bought; also called recombinant murine KDR-Fc; rmKDR-Fc
T3 sequence (P35918 20-762): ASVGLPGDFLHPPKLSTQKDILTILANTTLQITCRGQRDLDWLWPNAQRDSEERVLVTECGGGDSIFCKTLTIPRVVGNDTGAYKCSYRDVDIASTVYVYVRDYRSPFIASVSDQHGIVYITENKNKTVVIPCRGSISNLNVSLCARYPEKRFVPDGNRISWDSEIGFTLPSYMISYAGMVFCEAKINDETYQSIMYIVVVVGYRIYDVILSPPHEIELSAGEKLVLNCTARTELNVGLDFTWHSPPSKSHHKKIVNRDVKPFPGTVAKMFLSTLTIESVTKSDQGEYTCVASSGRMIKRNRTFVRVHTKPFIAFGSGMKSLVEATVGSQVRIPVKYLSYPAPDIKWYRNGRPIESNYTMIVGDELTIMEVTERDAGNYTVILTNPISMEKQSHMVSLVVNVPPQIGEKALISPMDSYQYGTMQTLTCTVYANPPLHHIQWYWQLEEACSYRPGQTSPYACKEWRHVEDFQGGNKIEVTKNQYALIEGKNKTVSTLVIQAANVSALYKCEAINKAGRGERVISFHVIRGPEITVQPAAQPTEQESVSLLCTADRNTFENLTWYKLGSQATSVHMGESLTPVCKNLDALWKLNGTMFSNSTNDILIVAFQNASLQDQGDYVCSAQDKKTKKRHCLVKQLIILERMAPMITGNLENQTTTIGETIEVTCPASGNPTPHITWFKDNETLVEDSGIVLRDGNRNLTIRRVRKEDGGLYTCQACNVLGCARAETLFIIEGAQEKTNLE

[8] = target: KDR on human umbilical vein endothelial cells (HUVECs) (human, UniProt P35968 20-1356); assay: cell-based or functional assay
KDR on human umbilical vein endothelial cells (HUVECs), sequence (P35968 20-1356): as the sequence (P35968 20-1356) above

[9] = target: human KDR-Fc fusion (R&D Systems #357-KD-050) (human) (UniProt P35968); assay: SPR, reference D2
human KDR-Fc fusion (R&D Systems #357-KD-050) (human), sequence (P35968 20-764): as the sequence (P35968 20-764) above

[10] = target: T3, murine KDR-Fc fusion (R&D Systems …); assay: BIAcore, KD1 = kd1/ka1, murine KDR-Fc 5000RU
[11] = target: T1, human KDR-Fc fusion (R&D Systems …); assay: phage binding screen on KDR-Fc; class legend in paragraph 246
[12] = target: T1, human KDR-Fc fusion (R&D Systems …); assay: as above; remark: listed apart in the source
[13] = target: T1, human KDR-Fc fusion (R&D Systems …); assay: as above; remark: listed apart in the source
[14] = target: KDR on transiently KDR-transfected 293H cells (human) (UniProt P35968); assay: competition with 300 pM 125I-VEGF on KDR-transfected 293H cells, peptide 30 µM
[15] = target: T1, human KDR-Fc fusion (R&D Systems …); assay: Biacore, KDR-Fc on CM5 chip, unlabeled peptide
[16] = target: KDR on transiently KDR-transfected 293H cells (human) (UniProt P35968); assay: competition with 300 pM 125I-VEGF on KDR-transfected 293H cells, peptide 0.3 µM
[17] = target: T1, human KDR-Fc fusion (R&D Systems …); assay: fluorescence anisotropy, fluorescein-labeled peptide
[18] = target: T1, human KDR-Fc fusion (R&D Systems …); assay: Biacore steady state, KD1 of double rectangular hyperbola, KDR-Fc 1600RU
[19] = target: T1, human KDR-Fc fusion (R&D Systems …); assay: Biacore steady state, KD1 of double rectangular hyperbola, KDR-Fc 6000RU
[20] = target: T1, human KDR-Fc fusion (R&D Systems …); assay: Biacore steady state at the higher immobilization densities
[21] = target: T1, human KDR-Fc fusion (R&D Systems …); assay: Biacore steady state, KD1 of double rectangular hyperbola, KDR-Fc 3000RU

B1: tail-to-tail heterodimer comprising the polypeptides of SEQ ID NO:305 and SEQ ID NO:306 (peptide)
peptide 1: AQEPEGYAYWEVITLYHEEDGDGGK
peptide 2: AQAFPRFGGDDYWIQQYLRYTDGGK
modifications: not fully specified (bridges); also: tail-to-tail linker not given here
Kd [1]: 11 nM

B2: SEQ ID NO:321 (peptide)
peptide: Ac-AGPGPCKGYMPHQCWYMGTGGGK-NH2
modifications: disulfide 6-14 (inferred); not fully specified; also: C-terminal Lys fluorescein-labeled in some assay forms
Kd [2]: 60 nM
Kd [3]: 80 nM
Kd [4]: 400 nM
binding result [5]: no binding

B3: SEQ ID NO:324 (peptide)
peptide: Ac-AGGHPCKGMLPHTCWYEGTGGGK-NH2
modifications: disulfide 6-14 (inferred); not fully specified; also: C-terminal Lys fluorescein-labeled in some assay forms
Kd [2]: 3300 nM
binding result [5]: no binding

Ac-AQDWYYDEILSMADQLRHAFLSGGGGGK([AEEA-AEEA-Biotin])-NH2 (peptide, part only; not given: neutravidin-HRP, not shown: large carriers, also: tetrameric complex with neutravidin-HRP) [tetrameric complex of biotinylated SEQ ID NO:356 (JJ spacer) with neutravidin-HRP]
ratio of specific binding to that of monomer (Tetramer) [6]: 16

B4: dimer 1 (D1) (peptide)
peptide 1: Ac-AGPTWCEDDWYYCWLFGTGGGK
peptide 2: Ac-VCWEDSWGGEVCFRYDPGGG
modifications: cysteine pairing not given here; also: heterodimer, C-terminal Lys joined through Biotin-JJK-glutaryl-JJ linker to the second peptide, amide, C-terminus joined to a lysine amide of the linker
Kd [7]: 17.5 nM
IC50, VEGF-induced phosphorylation of KDR in HUVECs [8]: 0.5 to 1 nM
fold higher affinity than D2 [9]: 10 fold
Kd [10]: 16 nM

IDFCKGMAPWLCADM [phage isolate IDFCKGMAPWLCADM]
binding result [11]: binds

Ac-AQDWYYDEILSMADQLRHAFLSGGGGGK([AEEA-AEEA-Biotin])-NH2 (peptide, part only; not given: control peptide and neutravidin-HRP, not shown: large carriers, also: neutravidin-HRP complex with biotinylated control peptide (dimer)) [neutravidin-HRP complex of SEQ ID NO:356 and control peptide, dimer]
ratio of specific binding to that of monomer (Dimer) [6]: 2.3

Ac-AQDWYYDEILSMADQLRHAFLSGGGGGK([AEEA-AEEA-Biotin])-NH2 (peptide, part only; not given: control peptide and neutravidin-HRP, not shown: large carriers, also: neutravidin-HRP complex with biotinylated control peptide (trimer)) [neutravidin-HRP complex of SEQ ID NO:356 and control peptide, trimer]
ratio of specific binding to that of monomer (Trimer) [6]: 5.7

WIECNKDGKCWHY [phage isolate WIECNKDGKCWHY]
binding result [12]: binds

GVECNHMGLCVSW [phage isolate GVECNHMGLCVSW]
binding result [12]: binds

B5: SEQ ID NO:323 (peptide)
peptide: Ac-AGYGPCKNMPPWMCWHEGTGGGK-NH2
modifications: disulfide 6-14 (inferred); not fully specified; also: C-terminal Lys fluorescein-labeled in some assay forms
Kd [2]: 180 nM
Kd [3]: 420 nM
Kd [4]: 1800 nM
binding result [5]: no binding

WYWCEFYGVCSEE [phage isolate WYWCEFYGVCSEE]
binding result [12]: binds

WVECNHKGLCREY [phage isolate WVECNHKGLCREY]
binding result [12]: binds

DHHCYLHNGQWICYPF [phage isolate DHHCYLHNGQWICYPF]
binding result [13]: binds

Ac-GDSRVCWEDSWGGEVCFRYDPGGGK-NH2 (not fully specified; cysteine pairing not given here) [SEQ ID NO:294]
% inhibition of 125I-labeled VEGF binding [14]: 96.3%
VEGF-induced KDR phosphorylation in HUVECs [8]: ≥ 50 % inhibition at 10 µM
Kd [15]: 120 nM
% inhibition of 125I-labeled VEGF binding [16]: 52.3%

PWTCWLEDHLACAML [phage isolate PWTCWLEDHLACAML]
binding result [11]: binds

B6: SEQ ID NO:325 (peptide)
peptide: Ac-AQAPAWTFGTNWRSIQRVDSLTGGGGGK-NH2
modifications: not fully specified; also: C-terminal Lys fluorescein-labeled in some assay forms
Kd [2]: 840 nM
binding result [5]: no binding
binding result [17]: no binding

B7: D6, peptide heterodimer composed of SEQ ID NO:277 and SEQ ID NO:294 (peptide)
peptide 1: AGPTWCEDDWYYCWLFGTGGGK
peptide 2: GDSRVCWEDSWGGEVCFRYDPGGGK
modifications: linker (positions not given here) via glutaric acid; disulfide I:6-I:13, II:6-II:16 (inferred); also: heterodimer joined by glutaric acid linker, attachment places not given here
notes: made with glutaric acid bis N-hydroxysuccinimidyl ester
Kd [18]: 46 nM
Kd [19]: 17 nM
Kd [20]: ~0.6 nM
Kd [21]: 25.5 nM
IC50, VEGF-induced migration of HUVECs [8]: ~12.5 nM

B8: SEQ ID NO:326 (peptide)
peptide: Ac-AQEGWFRNPQEIMGFGDSWDKPGGGGGK-NH2
modifications: not fully specified; also: C-terminal Lys fluorescein-labeled in some assay forms
Kd [2]: 1400 nM
binding result [5]: no binding
binding result [17]: no binding

B9: SEQ ID NO:322 (peptide)
peptide: Ac-AGYGPCAEMSPWLCWYPGTGGGK-NH2
modifications: disulfide 6-14 (inferred); not fully specified; also: C-terminal Lys fluorescein-labeled in some assay forms
Kd [2]: 130 nM
Kd [4]: 3700 nM
binding result [5]: no binding

MPWCSEVTWGWCKLN [phage isolate MPWCSEVTWGWCKLN]
binding result [11]: binds

NSHCYIWDGMWLCFPD [phage isolate NSHCYIWDGMWLCFPD]
binding result [13]: binds

GITCDELGRCVHW [phage isolate GITCDELGRCVHW]
binding result [12]: binds

RGPCSGQPWHLCYYQ [phage isolate RGPCSGQPWHLCYYQ]
binding result [11]: binds

WIQCNHQGQCFHG [phage isolate WIQCNHQGQCFHG]
binding result [12]: binds
